# Reference: US20220048967A1 (published 2022)
# Residue numbers refer to the chain shown, from its start. Numbered stars: 1 amine (or outer) side, 2 acyl side, 3 side chain; on linkers, the order of the positions; unused ones are H or OH. Square brackets hold non-standard residues; d marks the D form. Side chains are listed from the residue outwards. Ends that are not written are not given here. * marks the point of attachment. C20 diacid = O=C(O)CCCCCCCCCCCCCCCCCCC(=O)*; γGlu = O=C(O)[C@H](CCC(=O)[*:2])N[*:1]; αMeL = CC(C)C[C@](C)(N)C(=O)O; Dab = NCC[C@H](N)C(=O)O; AEEA = NCCOCCOCC(=O)O; Aib = CC(C)(N)C(=O)O
# B1: Example 288 (peptide)
# peptide: Y[Aib]EGTFTSDYSILLDKK([AEEA-AEEA-γGlu-C20 diacid])AQ[Aib]AFIEYLIAGGPSSGAPPPS-NH2
# modifications: N-terminus assumed
# SMILES: CC[C@H](C)[C@H](NC(=O)[C@H](CC(C)C)NC(=O)[C@H](Cc1ccc(O)cc1)NC(=O)[C@H](CCC(=O)O)NC(=O)[C@@H](NC(=O)[C@H](Cc1ccccc1)NC(=O)[C@H](C)NC(=O)C(C)(C)NC(=O)[C@H](CCC(N)=O)NC(=O)[C@H](C)NC(=O)[C@H](CCCCNC(=O)COCCOCCNC(=O)COCCOCCNC(=O)CC[C@H](NC(=O)CCCCCCCCCCCCCCCCCCC(=O)O)C(=O)O)NC(=O)[C@H](CCCCN)NC(=O)[C@H](CC(=O)O)NC(=O)[C@H](CC(C)C)NC(=O)[C@H](CC(C)C)NC(=O)[C@@H](NC(=O)[C@H](CO)NC(=O)[C@H](Cc1ccc(O)cc1)NC(=O)[C@H](CC(=O)O)NC(=O)[C@H](CO)NC(=O)[C@@H](NC(=O)[C@H](Cc1ccccc1)NC(=O)[C@@H](NC(=O)CNC(=O)[C@H](CCC(=O)O)NC(=O)C(C)(C)NC(=O)[C@@H](N)Cc1ccc(O)cc1)[C@@H](C)O)[C@@H](C)O)[C@@H](C)CC)[C@@H](C)CC)C(=O)N[C@@H](C)C(=O)NCC(=O)NCC(=O)N1CCC[C@H]1C(=O)N[C@@H](CO)C(=O)N[C@@H](CO)C(=O)NCC(=O)N[C@@H](C)C(=O)N1CCC[C@H]1C(=O)N1CCC[C@H]1C(=O)N1CCC[C@H]1C(=O)N[C@@H](CO)C(N)=O
# B2: Example 289 (peptide)
# peptide: YXEGTFTSDYSIXLDKKAQXEFIEYLIAGGPSSGAPPPS
# modifications: Aib2, αMeL13, K17 conjugated to (2-[2-(2-Amino-ethoxy)-ethoxy]-acetyl)2-(γ-Glu)-CO-(CH2)18-CO2H, Aib20, C-terminal amide (NH2)
# B3: Example 332 (peptide)
# peptide: B2 peptide with K16E, E21A
# modifications: Aib2, αMeL13, K17 conjugated to (2-[2-(2-Amino-ethoxy)-ethoxy]-acetyl)2-(γ-Glu)-CO-(CH2)18-CO2H, Aib20, C-terminal amide (NH2)
# B4: Example 343 (peptide)
# peptide: B2 peptide with K16E, E21A, E24X
# modifications: not fully specified; Aib2, αMeL13, K17 conjugated to (2-[2-(2-Amino-ethoxy)-ethoxy]-acetyl)2-(γ-Glu)-CO-(CH2)18-CO2H, Aib20, D-Glu24, C-terminal amide (NH2)
# B5: Example 340 (peptide)
# peptide: B2 peptide with Y1X, E21A
# modifications: not fully specified; D-Tyr1, Aib2, αMeL13, K17 conjugated to (2-[2-(2-Amino-ethoxy)-ethoxy]-acetyl)2-(γ-Glu)-CO-(CH2)18-CO2H, Aib20, C-terminal amide (NH2)
# B6: Example 342 (peptide)
# peptide: B2 peptide with Y1X, K16E
# modifications: not fully specified; D-Tyr1, Aib2, αMeL13, K17 conjugated to (2-[2-(2-Amino-ethoxy)-ethoxy]-acetyl)2-(γ-Glu)-CO-(CH2)18-CO2H, Aib20, C-terminal amide (NH2)
# B7: Example 344 (peptide)
# peptide: B2 peptide with K16E, E21D
# modifications: not fully specified; Aib2, αMeL13, K17 conjugated to (2-[2-(2-Amino-ethoxy)-ethoxy]-acetyl)2-(γ-Glu)-CO-(CH2)18-CO2H, Aib20, C-terminal amide (NH2)
# B8: Example 290 (peptide)
# peptide: B2 peptide with Y1X
# modifications: D-Tyr1, Aib2, αMeL13, K17 conjugated to (2-[2-(2-Amino-ethoxy)-ethoxy]-acetyl)2-(γ-Glu)-CO-(CH2)18-CO2H, Aib20, C-terminal amide (NH2)
# B9: Example 345 (peptide)
# peptide: B2 peptide with Y1X, F6X
# modifications: D-Tyr1, Aib2, αMeF6, αMeL13, K17 conjugated to (2-[2-(2-Amino-ethoxy)-ethoxy]-acetyl)2-(γ-Glu)-CO-(CH2)18-CO2H, Aib20, C-terminal amide (NH2)
# B10: Example 335 (peptide)
# peptide: B2 peptide with Y1X, F6X, E21A, A28E
# modifications: not fully specified; D-Tyr1, Aib2, αMeF6, αMeL13, K17 conjugated to (2-[2-(2-Amino-ethoxy)-ethoxy]-acetyl)2-(γ-Glu)-CO-(CH2)18-CO2H, Aib20, C-terminal amide (NH2)
# B11: Example 334 (peptide)
# peptide: B2 peptide with Y1X, E21A, A28E
# modifications: not fully specified; D-Tyr1, Aib2, αMeL13, K17 conjugated to (2-[2-(2-Amino-ethoxy)-ethoxy]-acetyl)2-(γ-Glu)-CO-(CH2)18-CO2H, Aib20, C-terminal amide (NH2)
# B12: Example 327 (peptide)
# peptide: B2 peptide with Y1F, E21A, A28E
# modifications: Aib2, αMeL13, K17 conjugated to (2-[2-(2-Amino-ethoxy)-ethoxy]-acetyl)2-(γ-Glu)-CO-(CH2)18-CO2H, Aib20, C-terminal amide (NH2)
# B13: Example 337 (peptide)
# peptide: B2 peptide with Y1F, E21A
# modifications: not fully specified; Aib2, αMeL13, K17 conjugated to (2-[2-(2-Amino-ethoxy)-ethoxy]-acetyl)2-(γ-Glu)-CO-(CH2)18-CO2H, Aib20, C-terminal amide (NH2)
# B14: Example 341 (peptide)
# peptide: B2 peptide with Y1X, K16E, E21A
# modifications: not fully specified; D-Tyr1, Aib2, αMeL13, K17 conjugated to (2-[2-(2-Amino-ethoxy)-ethoxy]-acetyl)2-(γ-Glu)-CO-(CH2)18-CO2H, Aib20, C-terminal amide (NH2)
# B15: Example 336 (peptide)
# peptide: B2 peptide with Y1X, F6X, E21A, A28E
# modifications: not fully specified; D-Tyr1, Aib2, αMeF(2F)6, αMeL13, K17 conjugated to (2-[2-(2-Amino-ethoxy)-ethoxy]-acetyl)2-(γ-Glu)-CO-(CH2)18-CO2H, Aib20, C-terminal amide (NH2)
# B16: Example 331 (peptide)
# peptide: B2 peptide with K16E
# modifications: Aib2, αMeL13, K17 conjugated to (2-[2-(2-Amino-ethoxy)-ethoxy]-acetyl)2-(γ-Glu)-CO-(CH2)18-CO2H, Aib20, C-terminal amide (NH2)
# B17: Example 333 (peptide)
# peptide: B2 peptide with A28E
# modifications: Aib2, αMeL13, K17 conjugated to (2-[2-(2-Amino-ethoxy)-ethoxy]-acetyl)2-(γ-Glu)-CO-(CH2)18-CO2H, Aib20, C-terminal amide (NH2)
# B18: Example 339 (peptide)
# peptide: B2 peptide
# modifications: not fully specified; Aib2, αMeL13, K17 conjugated to (2-[2-(2-Amino-ethoxy)-ethoxy]-acetyl)-(γ-Glu)-CO-(CH2)18-CO2H, Aib20, C-terminal amide (NH2)
# B19: Example 346 (peptide)
# peptide: B2 peptide with Y1X, K16X, E21A
# modifications: D-Tyr1, Aib2, αMeL13, Orn16, K17 conjugated to (2-[2-(2-Amino-ethoxy)-ethoxy]-acetyl)2-(γ-Glu)-CO-(CH2)18-CO2H, Aib20, C-terminal amide (NH2)
# B20: Example 347 (peptide)
# peptide: [dY][Aib]EGTFTSDYSI[αMeL]LD[Dab]K([AEEA-AEEA-γGlu-C20 diacid])AQ[Aib]AFIEYLIAGGPSSGAPPPS-NH2
# modifications: N-terminus assumed
# SMILES: CC[C@H](C)[C@H](NC(=O)[C@H](CC(C)C)NC(=O)[C@H](Cc1ccc(O)cc1)NC(=O)[C@H](CCC(=O)O)NC(=O)[C@@H](NC(=O)[C@H](Cc1ccccc1)NC(=O)[C@H](C)NC(=O)C(C)(C)NC(=O)[C@H](CCC(N)=O)NC(=O)[C@H](C)NC(=O)[C@H](CCCCNC(=O)COCCOCCNC(=O)COCCOCCNC(=O)CC[C@H](NC(=O)CCCCCCCCCCCCCCCCCCC(=O)O)C(=O)O)NC(=O)[C@H](CCN)NC(=O)[C@H](CC(=O)O)NC(=O)[C@H](CC(C)C)NC(=O)[C@](C)(CC(C)C)NC(=O)[C@@H](NC(=O)[C@H](CO)NC(=O)[C@H](Cc1ccc(O)cc1)NC(=O)[C@H](CC(=O)O)NC(=O)[C@H](CO)NC(=O)[C@@H](NC(=O)[C@H](Cc1ccccc1)NC(=O)[C@@H](NC(=O)CNC(=O)[C@H](CCC(=O)O)NC(=O)C(C)(C)NC(=O)[C@H](N)Cc1ccc(O)cc1)[C@@H](C)O)[C@@H](C)O)[C@@H](C)CC)[C@@H](C)CC)C(=O)N[C@@H](C)C(=O)NCC(=O)NCC(=O)N1CCC[C@H]1C(=O)N[C@@H](CO)C(=O)N[C@@H](CO)C(=O)NCC(=O)N[C@@H](C)C(=O)N1CCC[C@H]1C(=O)N1CCC[C@H]1C(=O)N1CCC[C@H]1C(=O)N[C@@H](CO)C(N)=O
# B21: Example 329 (peptide)
# peptide: XXEGTXTSDYSILLDKKAQXAFIEYLIEGGPSSGAPPPS
# modifications: D-Tyr1, Aib2, αMeF6, K17 conjugated to (2-[2-(2-Amino-ethoxy)-ethoxy]-acetyl)2-(γ-Glu)-CO-(CH2)18-CO2H, Aib20, C-terminal amide (NH2)
# B22: Example 330 (peptide)
# peptide: Y[Aib]EGTFTSDYSILLDEK([AEEA-AEEA-γGlu-C20 diacid])AQ[Aib]AFIEYLIAGGPSSGAPPPS-NH2
# modifications: N-terminus assumed
# SMILES: CC[C@H](C)[C@H](NC(=O)[C@H](CC(C)C)NC(=O)[C@H](Cc1ccc(O)cc1)NC(=O)[C@H](CCC(=O)O)NC(=O)[C@@H](NC(=O)[C@H](Cc1ccccc1)NC(=O)[C@H](C)NC(=O)C(C)(C)NC(=O)[C@H](CCC(N)=O)NC(=O)[C@H](C)NC(=O)[C@H](CCCCNC(=O)COCCOCCNC(=O)COCCOCCNC(=O)CC[C@H](NC(=O)CCCCCCCCCCCCCCCCCCC(=O)O)C(=O)O)NC(=O)[C@H](CCC(=O)O)NC(=O)[C@H](CC(=O)O)NC(=O)[C@H](CC(C)C)NC(=O)[C@H](CC(C)C)NC(=O)[C@@H](NC(=O)[C@H](CO)NC(=O)[C@H](Cc1ccc(O)cc1)NC(=O)[C@H](CC(=O)O)NC(=O)[C@H](CO)NC(=O)[C@@H](NC(=O)[C@H](Cc1ccccc1)NC(=O)[C@@H](NC(=O)CNC(=O)[C@H](CCC(=O)O)NC(=O)C(C)(C)NC(=O)[C@@H](N)Cc1ccc(O)cc1)[C@@H](C)O)[C@@H](C)O)[C@@H](C)CC)[C@@H](C)CC)C(=O)N[C@@H](C)C(=O)NCC(=O)NCC(=O)N1CCC[C@H]1C(=O)N[C@@H](CO)C(=O)N[C@@H](CO)C(=O)NCC(=O)N[C@@H](C)C(=O)N1CCC[C@H]1C(=O)N1CCC[C@H]1C(=O)N1CCC[C@H]1C(=O)N[C@@H](CO)C(N)=O
# Molecular target: Pro-Link-tagged Human GLP-1R (human, UniProt P43220 24-463)
# Test: cell-based or functional assay
Binder,hGLP1R B-Arrestin2 % Top [%],hGLP1R B-Arrestin2 Rel EC50 [nM]
B1,21.3,6.74
B2,51.3,12.4
B3,45.6,17.1
B4,41.4,45.5
B5,20.1,10.7
B6,20.7,35
B7,46,34.3
B8,20,23.8
B9,74.7,3.08
B10,73,5.31
B11,–,> 10300
B12,41.6,3.79
B13,34.1,17.4
B14,21.9,18.8
B15,82.5,7.78
B16,44.3,12.8
B17,58.2,54.8
B18,44,10.7
B19,19.3,3.25
B20,24.6,5.42
B21,63.4,4.73
B22,–,> 10900

# Molecular target: human GLP-1 receptor (human, UniProt P43220 24-463)
# Test: cell-based or functional assay
Binder,hGLP1R GTPgS % Top [%],hGLP1R GTPgS Rel EC50 [nM]
B1,66.7,0.666
B2,83.7,0.404
B3,81.5,0.453
B4,74.9,0.522
B5,67.4,0.45
B6,77.2,0.414
B7,85.8,0.423
B8,66.2,0.466
B9,62,0.684
B10,89.3,0.285
B11,70.2,0.432
B12,75.6,0.287
B13,59.5,0.322
B14,78.9,0.496
B15,90.2,0.377
B16,80.9,0.375
B17,83.4,0.442
B18,74.1,0.326
B19,56.6,0.737
B20,46.9,0.759
B21,83.6,0.343
B22,47.8,1.05
